± gives the standard deviation of the averaged measurements.
What follows are sequences tested on ATP (assay: switch fluorescence ratio, 500 uM ATP over buffer (Cy3 cluster intensity, sum of 5 cycles each) (fold (ratio)); higher = stronger signal-on switching upon ATP binding; sequences stand for … in TCGTCGGCAGCGTCAGATGTGTATAAGAGACAGTTTTTTTTTTTTTTTTTTTTTTTTT…TC). Conditions: aptamer strand: ATP DNA aptamer (quencher-CACCTGGGGGAGTATTGCGGAGGAAGG + anchor), 100 nM annealed; ATP concentration: 500 uM.
How it was run: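 Cy3-labelled switching-strand clusters on a modified Illumina MiSeq flow-cell were annealed to 100 nM quencher-labelled ATP aptamer and imaged first in selection buffer, then after 15 min with 500 uM ATP at 22 °C. NaOH stripping and re-annealing separated each of five buffer/ATP cycles, and clusters outside 100-1000 RFU were excluded. The fluorescence ratio sums target-cycle Cy3 intensity over buffer-cycle Cy3 intensity per cluster and averages it per switch-domain sequence.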
Work on CTTGAAAGAT yielded a switch fluorescence ratio of 0.99786 ± 0.00087. CTTGAAATTC was tested, and the switch fluorescence ratio was 1.04 ± 0.017. Work on CTTGACTTTT yielded a switch fluorescence ratio of 1.015 ± 0.0014. CTTGGGGGGA gave a switch fluorescence ratio of 0.997 ± 0.029. CTTGGGGTGC gave a switch fluorescence ratio of 1.07 ± 0.094. Sequence CTTGGGTTTG has a switch fluorescence ratio of 1.06 ± 0.14. CTTGGGTTTT was tested, and the switch fluorescence ratio was 0.9548 ± 0.0091. For CTTGGTCGGC, the switch fluorescence ratio was 1.068 ± 0.0026. CTTGTAAAAT gave a switch fluorescence ratio of 0.993 ± 0.014. For CTTGTAAGAA, the switch fluorescence ratio was 1.02 ± 0.05. With CTTGTAGGTG the switch fluorescence ratio was 1.36 ± 0.48. CTTGTATACG gave a switch fluorescence ratio of 0.9888 ± 0.001. Work on CTTGTATAGT yielded a switch fluorescence ratio of 0.9947 ± 0.0062. Sequence CTTGTATGAG has a switch fluorescence ratio of 0.989 ± 0.012. With CTTGTGAAA the switch fluorescence ratio was 1.009 ± 0.0082. With CTTGTGCAAG the switch fluorescence ratio was 1.03 ± 0.024. Sequence CTTGTGGCTT has a switch fluorescence ratio of 1.034 ± 0.0061. CTTGTGGTGT gave a switch fluorescence ratio of 0.973 ± 0.019. CTTGTTGGGT gave a switch fluorescence ratio of 0.999 ± 0.033. With CTTGTTGTAT the switch fluorescence ratio was 1.01 ± 0.02. With CTTGTTTGGC the switch fluorescence ratio was 1.02 ± 0.045. CTTGTTTGGG showed a switch fluorescence ratio of 1 ± 0.039. CTTTAAAGTT showed a switch fluorescence ratio of 1.09 ± 0.18. CTTTAAGGGC was tested, and the switch fluorescence ratio was 0.986 ± 0.022. Sequence CTTTAATCAA has a switch fluorescence ratio of 0.991 ± 0.013. Work on CTTTAATGTC yielded a switch fluorescence ratio of 1 ± 0.025. In the case of CTTTAATTCG, the switch fluorescence ratio is reported as 1 ± 0.028. CTTTAGCCGG showed a switch fluorescence ratio of 1.02 ± 0.049. In the case of CTTTATGGTT, the switch fluorescence ratio is reported as 0.99 ± 0.065. Work on CTTTATTCGT yielded a switch fluorescence ratio of 0.9896 ± 0.0096. CTTTCAATGG was tested, and the switch fluorescence ratio was 1.07 ± 0.015. CTTTGGCTTC gave a switch fluorescence ratio of 0.9876 ± 0.0039. Sequence CTTTGGGGGG has a switch fluorescence ratio of 0.982 ± 0.025. For CTTTGGGGGT, the switch fluorescence ratio was 0.979 ± 0.019. Work on CTTTGGGTTG yielded a switch fluorescence ratio of 1 ± 0.02. CTTTGTAGCC gave a switch fluorescence ratio of 1.05 ± 0.012. For CTTTGTCGCT, the switch fluorescence ratio was 1.01 ± 0.029. With CTTTTAAGGC the switch fluorescence ratio was 1.1 ± 0.15. Sequence CTTTTAAGGT has a switch fluorescence ratio of 0.984 ± 0.03. Sequence CTTTTACTAA has a switch fluorescence ratio of 1.024 ± 0.0071. CTTTTAGTGT gave a switch fluorescence ratio of 0.963 ± 0.032. Work on CTTTTATTGG yielded a switch fluorescence ratio of 1 ± 0.029. CTTTTGAAGT showed a switch fluorescence ratio of 0.983 ± 0.01. In the case of CTTTTGAGAC, the switch fluorescence ratio is reported as 1.02 ± 0.053. Work on CTTTTGAGGG yielded a switch fluorescence ratio of 0.974 ± 0.018. In the case of CTTTTGTAAT, the switch fluorescence ratio is reported as 1.01 ± 0.014. Sequence CTTTTTTGAT has a switch fluorescence ratio of 0.9831 ± 0.0061. For CTTTTTTGCC, the switch fluorescence ratio was 1.02 ± 0.019. For GAAAAAAAGG, the switch fluorescence ratio was 0.982 ± 0.051. GAAAAAACGT gave a switch fluorescence ratio of 1.05 ± 0.038. With GAAAAAGCAA the switch fluorescence ratio was 1.14 ± 0.054. Sequence GAAAAAGCAT has a switch fluorescence ratio of 1 ± 0.016. GAAAAAGTGA showed a switch fluorescence ratio of 0.975 ± 0.054. In the case of GAAAAAGTGG, the switch fluorescence ratio is reported as 0.998 ± 0.014. GAAAAATGCC gave a switch fluorescence ratio of 1.05 ± 0.05. GAAAAATTAA gave a switch fluorescence ratio of 0.993 ± 0.026. GAAAAGCAGG showed a switch fluorescence ratio of 0.989 ± 0.025. GAAAAGGGCG gave a switch fluorescence ratio of 1.01 ± 0.022. GAAAAGGGGT gave a switch fluorescence ratio of 1 ± 0.028. For GAAAAGTATC, the switch fluorescence ratio was 1.001 ± 0.0022. GAAAATAGGT was tested, and the switch fluorescence ratio was 0.99 ± 0.024. Work on GAAAATTGAG yielded a switch fluorescence ratio of 1 ± 0.015. With GAAAATTGCC the switch fluorescence ratio was 0.978 ± 0.075. For GAAACAGATA, the switch fluorescence ratio was 1 ± 0.012. Work on GAAACATGCT yielded a switch fluorescence ratio of 1.01 ± 0.052. For GAAACGGGGG, the switch fluorescence ratio was 1.013 ± 0.009. Work on GAAACTGGAA yielded a switch fluorescence ratio of 0.997 ± 0.016. For GAAACTTGCA, the switch fluorescence ratio was 1.075 ± 0.0066. In the case of GAAAGCATAT, the switch fluorescence ratio is reported as 1.01 ± 0.034. GAAAGCCCGT showed a switch fluorescence ratio of 0.989 ± 0.021. With GAAAGCTGAG the switch fluorescence ratio was 1.18 ± 0.033. GAAAGGGATG was tested, and the switch fluorescence ratio was 1.03 ± 0.029. GAAAGTAACC gave a switch fluorescence ratio of 1.05 ± 0.021. In the case of GAAAGTATGT, the switch fluorescence ratio is reported as 1 ± 0.024. GAAAGTCGGA gave a switch fluorescence ratio of 0.998 ± 0.066. GAAAGTGCTA gave a switch fluorescence ratio of 1.07 ± 0.03. Sequence GAAAGTGTGT has a switch fluorescence ratio of 1.004 ± 0.0092. Sequence GAAAGTTAAA has a switch fluorescence ratio of 1.038 ± 0.0091. In the case of GAAATAATAA, the switch fluorescence ratio is reported as 1.01 ± 0.011. Sequence GAAATAGGGC has a switch fluorescence ratio of 0.997 ± 0.0058. GAAATATTTT showed a switch fluorescence ratio of 0.996 ± 0.05. For GAAATCATGT, the switch fluorescence ratio was 0.977 ± 0.023. GAAATCGTTT showed a switch fluorescence ratio of 0.9949 ± 0.0082. GAAATGATTC was tested, and the switch fluorescence ratio was 1 ± 0.024. GAAATGGAGG was tested, and the switch fluorescence ratio was 0.995 ± 0.027. For GAAATGGGTG, the switch fluorescence ratio was 1.04 ± 0.078. For GAAATTCCGA, the switch fluorescence ratio was 1.85 ± 1.1. GAAATTTAAG was tested, and the switch fluorescence ratio was 1.02 ± 0.035. Sequence GAAATTTAGG has a switch fluorescence ratio of 0.9938 ± 0.0046. In the case of GAAATTTGAA, the switch fluorescence ratio is reported as 1.01 ± 0.012. GAAATTTGGA was tested, and the switch fluorescence ratio was 0.991 ± 0.034. With GAAATTTGGT the switch fluorescence ratio was 0.99 ± 0.042. In the case of GAACACTTAT, the switch fluorescence ratio is reported as 1.04 ± 0.044. In the case of GAACCATGTT, the switch fluorescence ratio is reported as 0.977 ± 0.014. For GAACCGGATG, the switch fluorescence ratio was 0.9997 ± 0.0074. Work on GAACCTAGAG yielded a switch fluorescence ratio of 0.98 ± 0.056. With GAACGAAGTT the switch fluorescence ratio was 1 ± 0.018. GAACGGAATT was tested, and the switch fluorescence ratio was 1.19 ± 0.023. GAACGGCTG gave a switch fluorescence ratio of 1.07 ± 0.049. Work on GAACGTCCAG yielded a switch fluorescence ratio of 0.99 ± 0.027. In the case of GAACGTCTAC, the switch fluorescence ratio is reported as 1.28 ± 0.056. With GAACTAAGGA the switch fluorescence ratio was 0.9895 ± 0.0027. With GAACTCATGA the switch fluorescence ratio was 0.982 ± 0.012. GAACTGATAA showed a switch fluorescence ratio of 1.16 ± 0.2. Sequence GAACTGGTAG has a switch fluorescence ratio of 0.992 ± 0.035. GAACTTGGGA showed a switch fluorescence ratio of 0.983 ± 0.058. For GAACTTGGTT, the switch fluorescence ratio was 1 ± 0.062. GAACTTTTTT showed a switch fluorescence ratio of 0.9935 ± 0.0083. Sequence GAAGAAAGAG has a switch fluorescence ratio of 1.02 ± 0.022. Sequence GAAGACAGTA has a switch fluorescence ratio of 1.01 ± 0.013. Sequence GAAGACGTTA has a switch fluorescence ratio of 1.04 ± 0.023. For GAAGAGCGGG, the switch fluorescence ratio was 0.978 ± 0.016. For GAAGATAGGT, the switch fluorescence ratio was 0.993 ± 0.03. Sequence GAAGATAGTG has a switch fluorescence ratio of 0.986 ± 0.03. Sequence GAAGATATTA has a switch fluorescence ratio of 1 ± 0.011. In the case of GAAGATGGGG, the switch fluorescence ratio is reported as 1.01 ± 0.024. GAAGCAGCAG showed a switch fluorescence ratio of 1.1888 ± 0.00054. For GAAGCCCAGG, the switch fluorescence ratio was 3.38 ± 2.6. Sequence GAAGCGCGTC has a switch fluorescence ratio of 0.998 ± 0.049. GAAGCTCCTG showed a switch fluorescence ratio of 0.996 ± 0.0043. Work on GAAGCTTGGT yielded a switch fluorescence ratio of 0.972 ± 0.041. GAAGGAAGAT gave a switch fluorescence ratio of 0.9708 ± 0.0069. GAAGGAAGTG was tested, and the switch fluorescence ratio was 1 ± 0.034. Work on GAAGGAATGT yielded a switch fluorescence ratio of 1 ± 0.022. Work on GAAGGAGAAG yielded a switch fluorescence ratio of 0.955 ± 0.0083. In the case of GAAGGCAAGG, the switch fluorescence ratio is reported as 1.07 ± 0.011. GAAGGGAGCA gave a switch fluorescence ratio of 1.02 ± 0.028. For GAAGGGATGT, the switch fluorescence ratio was 1.01 ± 0.042. In the case of GAAGGGCAGT, the switch fluorescence ratio is reported as 0.966 ± 0.029. GAAGGGCGTT showed a switch fluorescence ratio of 0.98247 ± 0.00082. GAAGGGGACG gave a switch fluorescence ratio of 1.006 ± 0.0085. GAAGGGGTGG was tested, and the switch fluorescence ratio was 1.01 ± 0.037. With GAAGGGGTTC the switch fluorescence ratio was 1.06 ± 0.084. GAAGGGTAAT showed a switch fluorescence ratio of 0.9955 ± 0.0036. Sequence GAAGGTAGAG has a switch fluorescence ratio of 0.99 ± 0.042. GAAGGTAGCA gave a switch fluorescence ratio of 1.03 ± 0.041. For GAAGGTATAC, the switch fluorescence ratio was 1.66 ± 0.18. With GAAGGTATGT the switch fluorescence ratio was 0.96567 ± 1.1e-05. In the case of GAAGGTGGGC, the switch fluorescence ratio is reported as 0.962 ± 0.028. With GAAGGTTATG the switch fluorescence ratio was 1 ± 0.015. With GAAGTAAGAG the switch fluorescence ratio was 1.11 ± 0.019. Sequence GAAGTAGTCG has a switch fluorescence ratio of 1.06 ± 0.017. In the case of GAAGTATGGT, the switch fluorescence ratio is reported as 1.01 ± 0.031. Sequence GAAGTCGTAG has a switch fluorescence ratio of 0.96 ± 0.039. With GAAGTCGTGC the switch fluorescence ratio was 0.999 ± 0.023. Work on GAAGTCGTT yielded a switch fluorescence ratio of 0.973 ± 0.0057. GAAGTGGGGG gave a switch fluorescence ratio of 1.01 ± 0.042. With GAAGTTATCG the switch fluorescence ratio was 0.982 ± 0.022. GAAGTTGCCT was tested, and the switch fluorescence ratio was 1.05 ± 0.028. GAAGTTGTCA gave a switch fluorescence ratio of 1.02 ± 0.047. Sequence GAAGTTGTGT has a switch fluorescence ratio of 0.987 ± 0.031. GAAGTTGTTG gave a switch fluorescence ratio of 0.9642 ± 0.0036. With GAAGTTTTTG the switch fluorescence ratio was 0.993 ± 0.017.

Reference: the supplement of paper PMC10126150
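Further: ATP exposure 15 min at 22 °C before imaging.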
